From patent US6191256A, “Recombinant factor VIII binding peptides” (Bayer Corporation, priority 1998, dated 2001)

Key:
[1] = target: T1, rFVIII (Homo sapiens, UniProt P00451); experiment: confirmatory binding assay in filtration plate format using 14C-rFVIII; conditions: for 0.5M CaCl2 % total / 2% acetic acid % total / 2% acetic acid dpm / 0.5M CaCl2 dpm: 5 mg beads; for 0.5M CaCl2 dpm: 5° C.; for beads % total / beads dpm: remaining on beads after washes
Protocol: Confirmatory binding assays were performed in a filtration plate format using individual peptide sequences synthesized directly onto the TOYOPEARL AF amino 650 M resin, at a final substitution density of 0.1 mmole/g resin. A slurry of each individual peptide sequence was prepared using deionized water. A 100 μL volume of beads (corresponding to 5 mg) was loaded into each well of the filtration plate (MULTISCREEN Assay System, Millipore, Bedford, Mass.), in triplicate for each peptide sequence. Beads were washed with 20% ethanol and incubated overnight with equilibration buffer (20 mM imidazole, 10 mM
CaCl2, 0.105 M NaCl, pH 6.9). A 100 μL aliquot of ^14 C-rFVIII diluted in neat PPF to a final concentration of 20-30 nM was loaded into each well and incubated for 1 hour at 5° C. Filtrate (unbound ^14 C-rFVIII) was collected into a microtiter plate and transferred to liquid scintillation vials for dpm counting. Beads were washed sequentially with: 100 μL of equilibration buffer for 15 minutes, 200 μL of 0.5 M CaCl2 (in equilibration buffer), 200 μL of 1.0 M CaCl2 (in equilibration buffer), and 200 uL of 2% by volume glacial acetic acid in water, for 1 hour each at 5° C. Scintillation counting on the unbound ^14 C-rFVIII (plus equilibration buffer wash), salt and acid washes, as well as on the beads was then performed and the overall mass balance calculated.
Beads presenting the appropriate peptide sequence on the surface were placed in the filtration plate wells and incubated sequentially with equilibration buffer, ^14 C-rFVIII in PPF, equilibration buffer, 0.5 M CaCl2 wash, 1.0 M CaCl2 wash and 2% acetic acid wash. After each incubation, filtrate was collected in microtiter plates, and dpm counted on each
In Table 3, the ^14 C-rFVIII was loaded at 20 nM (in PPF) and the radiolabeling yield was at 3.0×10^15 dpm/mole. In Table 4, the ^14 C-rFVIII was loaded at 30 nM (in PPF) and the radiolabeling yield was at 5.0×10^15 dpm/mole.

[2] = target: T1, rFVIII; experiment: column format binding assay, rFVIII mass per fraction by sandwich capture ELISA for the light chain; conditions: for Flow through ng: 10,000 ng rFVIII in 1:10 PPF injected, 5° C.; for ELISA results % total: Table 9, 0.5M CaCl2 fraction
Protocol: (§1) Immunoassay on rFVIII using a sandwich capture ELISA for the light chain and activity assay using a chromogenic substrate (COATEST Factor VIII kit from diaPharma, Franklin, Ohio) were performed on a BIOMEK® automated liquid handling system from Beckman Instruments (Brea, Calif.). The monoclonal antibody for rFVIII light chain (known as C7F7), the ELISA assay standard (lot A70K019), and the control for the activity assay (lot A70A001 @ 140 IU/mL) were from the Bayer Corporation (Berkeley, Calif.). The standard for the activity assay was at 11.2 IU/mL (Bayer, Clayton, N.C.), calibrated against the MEGA 1 standard, which is a working standard used by American manufacturers for measuring factor VIII activity (21).
(§2) Additional confirmatory binding assay and performance of the discovered binding peptides in terms of total rFVIII and activity recovery was performed in a column chromatographic format on a microbore HPLC. The resins were packed into 0.4×5 cm columns (Thomson, Springfield, Va.) and tested on the MICHROM HPLC system (Michrom BioResources, Auburn, Calif.). The elution program for the trials utilized the following method. The column was pre-equilibrated with equilibration buffer (as above). A 1 mL aliquot of 1:10 PPF followed by 1 mL of rFVIII (10,000 ng) in 1:10 PPF were injected and allowed sufficient time to flow through the column using equilibration buffer. The column was then washed with step elutions of 0.5 M and 1.0 M CaCl2 in equilibration buffer. The column was exposed to equilibration buffer. Remaining protein was eluted with 2% by volume glacial acetic acid in water. Columns were kept at 5° C. during the chromatographic runs. For each 1 mL injection (equilibration buffer, 1:10 PPF and 10,000 ng rFVIII in 1:10 PPF), the chromatographic cycle was run for 45 minutes (injection, flow through, 0.5 M CaCl2, 1.0 M CaCl2, equilibration buffer, 2% acetic acid, equilibration buffer).
(§3) A Gilson FC204 fraction collector at the HPLC outlet collected individual eluates for further analysis. Each collection tube had 100 μL hSA added to it to stabilize the rFVIII. Fractions collected from the 2% acetic acid eluates were neutralized with 2 M Tris, pH 10.5 to bring the pH to neutrality. The fractions were analyzed for total protein by the integration of the absorbance at 280 nm, for rFVIII by immunoassay (sandwich capture ELISA), and for rFVIII activity by a chromogenic substrate assay.
Tables 5 and 6 present the results from the additional confirmatory binding assays using the column format. The chromatography method was run by injecting the samples at a flow rate of 865 μL/min (413 cm/hr). In order to provide a 10 minute residence time of sample in the column the flow was decreased to 17 μL/min (10 cm/hr) upon injection.
Following the incubation, the flow was set at 865 μL/min (413 cm/hr) for the step clutions of 0.5 M CaCl2, 1.0 M CaCl2, and 2% acetic acid. Results are expressed in terms of the total mass of rFVIII in each fraction, as determined by the sandwich capture ELISA assay for the rFVIII light chain. […] A control using a non-binding peptide sequence (IGF) is also shown for comparison--in this case, 95% of the rFVIII loaded to the column was collected in the flow through fraction. Additional controls with no

[3] = target: T1, rFVIII; experiment: rFVIII activity recovery from peptide columns by chromogenic substrate assay (COATEST); type: biochemical; conditions: for 0.5M CaCl2 % total: activity recovery; for Flow through IU: rFVIII activity in fraction; for Activity results % total: Table 9, 0.5M CaCl2 fraction
Protocol: as §1, §2, §3
Tables 7 and 8 list the sequences for which activity recovery was determined by a chromogenic substrate assay (COASTEST kit, diaPharma, Franklin, Ohio). Chromatographc conditions are the same as described above for the results from Tables 5 and 6. It can be

[4] = Table 3, 14C-rFVIII 20 nM in PPF
[5] = Table 3, 14C-rFVIII 20 nM in PPF, 3.0 × 10^15 DPM/mole
[6] = Table 4, 14C-rFVIII 30 nM in PPF

T1 sequence (P00451 20-2351): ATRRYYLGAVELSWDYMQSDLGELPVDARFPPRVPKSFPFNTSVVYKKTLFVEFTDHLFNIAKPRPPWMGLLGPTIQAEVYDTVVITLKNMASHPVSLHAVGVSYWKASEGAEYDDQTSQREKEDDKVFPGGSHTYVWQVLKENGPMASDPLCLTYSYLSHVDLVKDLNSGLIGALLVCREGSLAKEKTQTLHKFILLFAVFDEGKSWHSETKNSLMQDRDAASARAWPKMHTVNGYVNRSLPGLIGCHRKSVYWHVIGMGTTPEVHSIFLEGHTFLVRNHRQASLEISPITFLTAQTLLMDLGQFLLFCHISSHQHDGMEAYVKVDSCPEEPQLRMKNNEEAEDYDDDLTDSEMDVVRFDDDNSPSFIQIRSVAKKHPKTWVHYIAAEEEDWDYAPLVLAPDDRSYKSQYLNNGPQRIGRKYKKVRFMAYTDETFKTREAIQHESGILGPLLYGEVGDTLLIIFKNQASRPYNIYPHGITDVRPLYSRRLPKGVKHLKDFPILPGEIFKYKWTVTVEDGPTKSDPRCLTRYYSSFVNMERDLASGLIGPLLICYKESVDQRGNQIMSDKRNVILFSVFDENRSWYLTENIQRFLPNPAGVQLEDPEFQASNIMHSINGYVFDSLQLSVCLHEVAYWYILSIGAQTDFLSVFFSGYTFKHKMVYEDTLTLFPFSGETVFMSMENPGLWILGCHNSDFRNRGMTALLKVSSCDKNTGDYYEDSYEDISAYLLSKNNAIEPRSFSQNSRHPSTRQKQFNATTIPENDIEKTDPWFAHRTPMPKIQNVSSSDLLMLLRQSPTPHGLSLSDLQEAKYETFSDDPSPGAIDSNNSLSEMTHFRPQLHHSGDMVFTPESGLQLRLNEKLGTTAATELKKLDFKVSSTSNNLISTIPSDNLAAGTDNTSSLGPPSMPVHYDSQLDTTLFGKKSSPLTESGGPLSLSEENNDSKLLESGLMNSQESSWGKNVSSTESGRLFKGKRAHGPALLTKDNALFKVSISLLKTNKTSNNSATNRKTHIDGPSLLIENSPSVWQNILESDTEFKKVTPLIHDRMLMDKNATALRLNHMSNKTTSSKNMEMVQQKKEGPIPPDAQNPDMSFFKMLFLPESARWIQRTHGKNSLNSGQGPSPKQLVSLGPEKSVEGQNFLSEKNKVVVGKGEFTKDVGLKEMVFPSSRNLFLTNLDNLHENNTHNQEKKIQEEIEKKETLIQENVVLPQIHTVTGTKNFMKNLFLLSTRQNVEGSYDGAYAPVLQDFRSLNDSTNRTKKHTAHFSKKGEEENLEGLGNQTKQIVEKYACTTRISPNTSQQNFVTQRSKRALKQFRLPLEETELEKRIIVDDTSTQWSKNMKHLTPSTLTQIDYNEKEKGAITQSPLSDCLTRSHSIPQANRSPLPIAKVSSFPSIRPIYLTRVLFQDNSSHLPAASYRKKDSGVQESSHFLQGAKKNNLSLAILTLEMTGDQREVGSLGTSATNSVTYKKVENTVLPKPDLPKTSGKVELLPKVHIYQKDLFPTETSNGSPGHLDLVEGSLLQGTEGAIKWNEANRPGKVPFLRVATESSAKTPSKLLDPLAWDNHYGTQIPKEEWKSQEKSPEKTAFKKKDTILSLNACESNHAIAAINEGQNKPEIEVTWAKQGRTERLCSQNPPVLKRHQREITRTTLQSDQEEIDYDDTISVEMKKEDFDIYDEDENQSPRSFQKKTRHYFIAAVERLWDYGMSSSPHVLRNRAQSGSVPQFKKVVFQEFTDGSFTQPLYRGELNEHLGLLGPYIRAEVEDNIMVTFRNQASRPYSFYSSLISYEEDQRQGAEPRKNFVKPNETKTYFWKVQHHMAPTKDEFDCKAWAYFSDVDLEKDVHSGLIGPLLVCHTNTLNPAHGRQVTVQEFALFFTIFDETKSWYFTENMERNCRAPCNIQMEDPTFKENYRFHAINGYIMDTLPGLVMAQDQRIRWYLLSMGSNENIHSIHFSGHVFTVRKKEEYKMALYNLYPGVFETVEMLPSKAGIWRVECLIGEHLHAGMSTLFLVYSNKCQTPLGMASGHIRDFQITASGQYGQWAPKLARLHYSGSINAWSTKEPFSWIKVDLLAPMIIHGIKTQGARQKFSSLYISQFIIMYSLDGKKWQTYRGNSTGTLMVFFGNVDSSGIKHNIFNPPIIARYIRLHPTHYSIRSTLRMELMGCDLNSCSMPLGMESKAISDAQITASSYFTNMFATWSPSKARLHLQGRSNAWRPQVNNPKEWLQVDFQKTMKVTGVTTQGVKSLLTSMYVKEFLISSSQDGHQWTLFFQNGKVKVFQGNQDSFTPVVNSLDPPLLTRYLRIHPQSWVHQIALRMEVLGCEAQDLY
T1 sequence (P00451 1668-2351 limits assumed): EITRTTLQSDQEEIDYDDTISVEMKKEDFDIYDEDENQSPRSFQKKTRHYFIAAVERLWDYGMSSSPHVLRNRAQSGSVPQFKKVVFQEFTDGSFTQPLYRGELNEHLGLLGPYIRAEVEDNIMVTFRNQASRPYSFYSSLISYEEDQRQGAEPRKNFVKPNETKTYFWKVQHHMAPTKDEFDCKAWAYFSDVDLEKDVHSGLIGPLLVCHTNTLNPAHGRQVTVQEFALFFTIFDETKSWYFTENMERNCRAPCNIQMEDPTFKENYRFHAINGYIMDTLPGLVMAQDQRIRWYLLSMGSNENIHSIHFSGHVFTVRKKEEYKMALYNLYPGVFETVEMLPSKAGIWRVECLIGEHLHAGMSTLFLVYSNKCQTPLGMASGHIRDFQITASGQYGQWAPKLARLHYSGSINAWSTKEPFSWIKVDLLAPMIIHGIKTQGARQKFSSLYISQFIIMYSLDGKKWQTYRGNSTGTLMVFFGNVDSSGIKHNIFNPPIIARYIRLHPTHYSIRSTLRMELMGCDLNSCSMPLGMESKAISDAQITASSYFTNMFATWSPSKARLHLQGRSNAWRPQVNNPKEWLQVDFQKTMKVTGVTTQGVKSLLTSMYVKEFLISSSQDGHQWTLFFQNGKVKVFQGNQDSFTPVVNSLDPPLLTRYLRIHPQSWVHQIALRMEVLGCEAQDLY

Substance: 2 (RNPPNN) [compound 2]
- Total dpm ([1]; Table 3, 14C-rFVIII 20 nM): 2767 dpm
- 0.5M CaCl2 % total [1, 4]: 86%
- 2% acetic acid % total [1, 4]: 12%
- 2% acetic acid dpm [1, 4]: 322 dpm
- 0.5M CaCl2 dpm [1, 5]: 2366 dpm
- beads % total ([1]; Table 3, 14C-rFVIII 20 nM): 3%
- beads dpm ([1]; Table 3, 14C-rFVIII 20 nM): 79 dpm
- 0.5M CaCl2 ng ([2]; Table 5): 5745 ng
- 0.5M CaCl2 % total ([2]; Table 5): 92%
- 2% acetic acid % total ([2]; Table 5): 0%
- 2% acetic acid ng ([2]; Table 5): 31 ng
- Flow through % total ([2]; Table 5): 7%
- Total ng ([2]; Table 5): 6245 ng
- Flow through ng ([2]; Table 5): 447 ng
- ELISA results % total [2]: 92%
- 0.5M CaCl2 IU ([3]; Table 7): 51.6 IU
- 2% acetic acid % total ([3]; Table 7): 1%
- 2% acetic acid IU ([3]; Table 7): 0.5 IU
- Flow through % total ([3]; Table 7): 1%
- Total IU ([3]; Table 7): 54.3 IU
- 0.5M CaCl2 % total ([3]; Table 7): 95%
- Flow through IU ([3]; Table 7): 0.4 IU
- Activity results % total [3]: 95%

Substance: 5 (LNWKYG) [compound 5]
- Total dpm ([1]; Table 3, 14C-rFVIII 20 nM): 4091 dpm
- 0.5M CaCl2 % total [1, 4]: 86%
- 2% acetic acid % total [1, 4]: 10%
- 2% acetic acid dpm [1, 4]: 430 dpm
- 0.5M CaCl2 dpm [1, 5]: 3519 dpm
- beads % total ([1]; Table 3, 14C-rFVIII 20 nM): 3%
- beads dpm ([1]; Table 3, 14C-rFVIII 20 nM): 143 dpm
- 0.5M CaCl2 ng ([2]; Table 5): 5530 ng
- 0.5M CaCl2 % total ([2]; Table 5): 97%
- 2% acetic acid % total ([2]; Table 5): 2%
- 2% acetic acid ng ([2]; Table 5): 125 ng
- Flow through % total ([2]; Table 5): 0%
- Total ng ([2]; Table 5): 5680 ng
- Flow through ng ([2]; Table 5): 25 ng
- ELISA results % total [2]: 97%
- 0.5M CaCl2 IU ([3]; Table 7): 36.3 IU
- 2% acetic acid % total ([3]; Table 7): 3%
- 2% acetic acid IU ([3]; Table 7): 1.2 IU
- Flow through % total ([3]; Table 7): 0%
- Total IU ([3]; Table 7): 37.8 IU
- 0.5M CaCl2 % total ([3]; Table 7): 96%
- Flow through IU ([3]; Table 7): 0.0 IU
- Activity results % total [3]: 96%

Substance: 6 (HYWFYK) [compound 6]
- Total dpm ([1]; Table 3, 14C-rFVIII 20 nM): 3881 dpm
- 0.5M CaCl2 % total [1, 4]: 83%
- 2% acetic acid % total [1, 4]: 12%
- 2% acetic acid dpm [1, 4]: 458 dpm
- 0.5M CaCl2 dpm [1, 5]: 3236 dpm
- beads % total ([1]; Table 3, 14C-rFVIII 20 nM): 5%
- beads dpm ([1]; Table 3, 14C-rFVIII 20 nM): 187 dpm
- 0.5M CaCl2 ng ([2]; Table 5): 5658 ng
- 0.5M CaCl2 % total ([2]; Table 5): 90%
- 2% acetic acid % total ([2]; Table 5): 3%
- 2% acetic acid ng ([2]; Table 5): 160 ng
- Flow through % total ([2]; Table 5): 2%
- Total ng ([2]; Table 5): 6320 ng
- Flow through ng ([2]; Table 5): 105 ng
- ELISA results % total [2]: 90%
- 0.5M CaCl2 IU ([3]; Table 7): 59.4 IU
- 2% acetic acid % total ([3]; Table 7): 1%
- 2% acetic acid IU ([3]; Table 7): 0.5 IU
- Flow through % total ([3]; Table 7): 0%
- Total IU ([3]; Table 7): 68.7 IU
- 0.5M CaCl2 % total ([3]; Table 7): 86%
- Flow through IU ([3]; Table 7): 0.0 IU
- Activity results % total [3]: 86%

Substance: 7 (IRFYSE) [compound 7]
- Total dpm ([1]; Table 3, 14C-rFVIII 20 nM): 3764 dpm
- 0.5M CaCl2 % total [1, 4]: 85%
- 2% acetic acid % total [1, 4]: 11%
- 2% acetic acid dpm [1, 4]: 415 dpm
- 0.5M CaCl2 dpm [1, 5]: 3184 dpm
- beads % total ([1]; Table 3, 14C-rFVIII 20 nM): 4%
- beads dpm ([1]; Table 3, 14C-rFVIII 20 nM): 165 dpm
- 0.5M CaCl2 ng ([2]; Table 5): 5836 ng
- 0.5M CaCl2 % total ([2]; Table 5): 94%
- 2% acetic acid % total ([2]; Table 5): 1%
- 2% acetic acid ng ([2]; Table 5): 77 ng
- Flow through % total ([2]; Table 5): 4%
- Total ng ([2]; Table 5): 6225 ng
- Flow through ng ([2]; Table 5): 228 ng
- ELISA results % total [2]: 94%
- 0.5M CaCl2 IU ([3]; Table 7): 40.6 IU
- 2% acetic acid % total ([3]; Table 7): 1%
- 2% acetic acid IU ([3]; Table 7): 0.4 IU
- Flow through % total ([3]; Table 7): 0%
- Total IU ([3]; Table 7): 42.5 IU
- 0.5M CaCl2 % total ([3]; Table 7): 96%
- Flow through IU ([3]; Table 7): 0.0 IU
- Activity results % total [3]: 96%

Substance: 9 (FALPGR) [compound 9]
- Total dpm ([1]; Table 4, 14C-rFVIII 30 nM): 3658 dpm
- 0.5M CaCl2 % total [1, 6]: 93%
- 2% acetic acid % total [1, 6]: 5%
- 2% acetic acid dpm [1, 6]: 176 dpm
- 0.5M CaCl2 dpm ([1]; Table 4, 14C-rFVIII 30 nM in PPF, 5.0 × 10^15 dpm/mole): 3414 dpm
- beads % total ([1]; Table 4, 14C-rFVIII 30 nM): 2%
- beads dpm ([1]; Table 4, 14C-rFVIII 30 nM): 68 dpm
- 0.5M CaCl2 ng ([2]; Table 6): 7154 ng
- 0.5M CaCl2 % total ([2]; Table 6): 97%
- 2% acetic acid % total ([2]; Table 6): 2%
- 2% acetic acid ng ([2]; Table 6): 181 ng
- Flow through % total ([2]; Table 6): 0%
- Total ng ([2]; Table 6): 7403 ng
- Flow through ng ([2]; Table 6): 0 ng
- ELISA results % total [2]: 97%
- 0.5M CaCl2 IU ([3]; Table 8): 68.9 IU
- 2% acetic acid % total ([3]; Table 8): 0%
- 2% acetic acid IU ([3]; Table 8): 0.1 IU
- Flow through % total ([3]; Table 8): 0%
- Total IU ([3]; Table 8): 70.2 IU
- 0.5M CaCl2 % total ([3]; Table 8): 98%
- Flow through IU ([3]; Table 8): 0.0 IU
- Activity results % total [3]: 98%
